Laboratory results from article PMC7846606.

Biological target: PRC2:EZH1 (EZH1, EED, SUZ12, RBAP48, AEBP2 and JARID2) (UniProt Q92800)
Test: SEC-MALS; TSKgel G4000SWxl, 20 mM Tris-HCl pH 7.5, 300 mM NaCl, 1 mM DTT, 0.5 ml/min; complexes at 1.25 mg/ml, 30 μl injected

- stoichiometry N: 2
Substance: PRC2:EZH1 (EZH1, EED, SUZ12, RBAP48, AEBP2 and JARID2) (from UniProt Q92800 1-747; Q15022 1-739; O75530 1-441; Q09028 1-425; Q6ZN18 209-503; Q92833 1-1246) (complex)
